Here are results for 1 molecule from US11066655B2, “RNA polymerase, methods of purification and methods of use” (President and Fellows of Harvard College, priority 2013, dated 2021).

The subject of one data set is pUC19-S5P or pUC19-T7P. Briefly: Processivity gel assay, rolling-circle synthesis on single-promoter plasmids. The format is biochemical. As to the method: FIGS. 9A-9H depict the processivity of Syn5 and T7 RNA polymerases. A) Agarose gel showing RNA synthesis by previously purified Syn5 RNA polymerase, newly purified Syn5 RNA polymerase with the improved procedure, and T7 RNA polymerase on a plasmid template containing a single cognate promoter (as shown in the schematic). B) Product as shown in A) by S5N2 RNA polymerase was incubated with 1 U/[…]1 RNase I or DNase I to confirm its RNA nature. C) Effect of increasing KCl concentration on Syn5 RNA polymerase transcription. D) Products by Syn5 and T7 RNAP in a rolling-circle manner were analyzed at denaturing condition. E) Same assay as D) except that the template plasmids were linearized as shown in the schematic. F) & G) Decreasing the concentration of T7 (F) and Syn5 (G) RNA polymerase reduced the abortive products due to clash of RNA polymerases at promoter region. H) RNA polymerase promoter distribution on coliphage T7 and cyanophage Syn5 genomes.
DNA templates for transcription assays were either plasmids or dsDNA fragments made of synthesized oligonucleotides. To test the processivity of Syn5 and T7 RNAP, a single Syn5 or T7 promoter plus 3 guanosine downstream of the promoter (Syn5 5′-ATTGGGCACCCGTAAGGG-3′ (SEQ ID NO:1) or T7 5′-[…]-3′) (SEQ ID NO:2) was inserted between the BamHI and XbaI sites of plasmid pUC19 to form pUC19-S5P or pUC19-T7P. The templates for run-off tRNA^Arg synthesis were formed by annealing of two complementary synthesized DNA oligos of which sequences are as following:
For the results shown in FIG. 9, reaction mixtures (10 μl) contained 40 mM Tris-HCl pH 8.0, 6 mM MgCl2, 2 mM spermidine, 10 mM DTT, 600 µM[…]P, GTP, CTP, and UTP, 1.5 U/µl RNaseOUT™ recombinant ribonuclease inhibitor, 0.04 U/µl yeast inorganic pyrophosphatase, 10 nM pUC19-Syn5P3G or pUC19-T7P3G, 10 nM Syn5 or T7 RNAP and various amount of KCl as noted in the figure or described in the figure legend. After 1 hr incubations at RT, one unit of DNase I was added to each reaction mixture and incubated for an additional 15 min at 37° C. to remove the DNA templates. For FIGS. 8A-8C, 2 µl reaction mixture was directly mixed with native loading dye and loaded onto 1.6% TAE agarose gel. For FIGS. 8D-8F, RNA products were purified with RNA Clean & Concentrator™-5 kit into a final solution of 10 µl and 5 µl each was mixed with 5 µl denaturing RNA loading dye (New England Biolabs). Samples were then heated at 65° C. for 5 min and loaded onto 1.6% TAE agarose gel. RNA products were visualized by ethidium bromide staining.

Data set [1] can be described thus: Solubility / precipitation of the purified enzyme. The class given is physicochemical. The settings on record: transcription reaction. The protocol: His-tagged Syn5 RNAP was expressed from a pET24 vector harboring His-tagged Syn5 RNAP gene between the NdeI and NotI sites (Zhu et al. (2013)) and purified by Ni-NTA agarose and gel filtration chromatography. 2 M NaCl was present during the purification procedure and was removed by dialysis as the protein was finally concentrated. E. coli BL21(DE3) cells over-producing the protein were cultured in 2 L LB medium containing 50 µg/ml kanamycin at 37° C. until they reached an OD600 of approximately 1.2. The gene for Syn5 RNAP was induced by the addition of 0.5 mM IPTG at 16° C. and incubation continued for 3 hr. Cells were harvested, resuspended in 50 mM sodium phosphate, pH 8.0, 100 mM NaCl, and lysed by three cycles of freeze-thaw in the presence of 0.5 mg/ml lysozyme. 2 M NaCl was then added to the lysed cells and the cleared lysate was collected by centrifugation. 2 ml Ni-NTA agarose was added to the clear lysate and mixed at 4° C. overnight. The resin was then washed with 30 ml of wash buffer (50 mM sodium phosphate, pH 8.0, 2 M NaCl, and 20 mM imidazole). […] Fractions were analyzed on SDS-PAGE gels and those with Syn5 RNAP over 80% were collected and concentrated with Amicon Ultra-15 Centrifugal Filter Units (Millipore) to 1 ml. […] Fractions were analyzed on SDS-PAGE gels and those with homogenous Syn5 RNAP were pooled. […]

For data set [2], the system named is dsDNA template S5PhmttRNAProUGG. The data set can be described thus: Synthesis of human mt tRNAPro, short RNA, optimized conditions. The format is biochemical.

B1: Syn5 RNAP: single subunit DNA-dependent RNA polymerase from marine cyanophage Syn5, amino acid sequence SEQ ID NO:23 (protein)
chain: MSFDLIARQLQRETEAAELARKRLQDARREANERSYASSNIESRKAIATFLDPIAQRIGERLFTLRRGTGAVDAAEVYKHLKNADHHHLALITMKTALDVLGKDPEPQIQQLTTAIGRNIQLELRLTYYAEENPELYKQASRFFHAGTGTRQKATVIKLKFNREGIEWDQWSRVTCHKVGQWLMLAMADVTGWIERATDRTSGGRKTKTRICYSREFLQHRDTILAAAEQLAFCQWPMLCPPIEWSNDHNGGYLSEQIRRVNPLIRKTGPLGTRKQGDIPLAMLNNLQGQAYKVNPEVLDIANHCYESNVTVGKFIRHAPLPVPPSPGEDCTEDQLTAYKRARREAEDFNAQISQKNWRTTEVMYVARKYADEASFWMPASFDYRGRVYFLNTALNPQGTDFDKALLYFAEEGPVNEWWLSFHVATTYGLDKETMVNRVQWARDNHELIDRIASDPVRHTEWHDADEPWCFLAACLEYKACVIDGTKQTSGLPIGIDATCSGLQHLAAMTRCGRTAALVNVTPTDKPADAYKTVAQASLKHLPKEQHEWITRKVTKRPVMCTPYGVTMSSARGYIRDQLVKDGHKEDLRSPGVLNGIVKAIFNEAIPEVIPGPVQVMAWLKRSAGQIIDRGDSTITWTTPSGFEVVQDLKKSKTYEVKTRIMGGARIKLQVGDGFTDEPDRDHHKSALAPNVVHSNDASLLHLTFAFWDKPFTVIHDCVLGRSCDMDQMGSDIRLHFAEMYKADVMQDWADQVGVELPVDLIKNTLDIDSVNQSLYFFS
modifications: Amino acid sequence of a cyanophage Syn5 RNAP
With B1, in the data set with pUC19-S5P or pUC19-T7P, the apparent processivity entry is reported as “over 30 kilo nucleotides” and the processivity entry is on record as “greater than 30,000 nt”. For the same molecule, in the data set on pUC19-S5P or pUC19-T7P (low enzyme concentration), the “length approached by some products” value is given as around 30 kilo nt and the “length of most products” value is “over 9 kilo nt”. Further, the “final concentration in the reaction resulting in severe protein precipitation” value in data set [1] is “over 5 µM”. For the same molecule, the “estimated yield of RNA” value in data set [2] (100 µl transcription reaction) is given as 4 nmole/100 µl. Moreover, the enzyme activity result in data set [2] (at 42° C.) is given as “very low”. The reduction of yield entry in data set [2] (final NTP 4 mM instead of 8 mM) is recorded as “approximately 20%”.
